Ten sequences from a protein production outcome set (Wang et al. 2014) can be followed below.

The nature of the series: label from the status in PepcDB records.
Take “MTFGSLFRNQTRTVVKGHIFNLPNSLSILRILLIPWFIYYLDAGQTHIALIIMVVALLSDWFDGQMARWTNEVSDMGKILDPLADKLCLASVALYYLWKGELPVWFVVFVVFRDLVIFLGAAWIRHRHNVLTTSLWPGKWAVGFVSMMFISMVWPLPVFRQWPVKEFFMYLSAATLFYSFVEYCIRFYKIQKGAEFKA”: the protein production result is recorded as “failed”.

With “GRKVGFRKGPRPGAGPREGGFRNDGPRGEGGYRNDGPRGEGGYRNDGPRGEGPRNEGPRGEGYRNDGPRGEGFRGPRFNNGPSNGYENRQDNNRFGEKRRSAQKPLKVDDEAQFPTLC”, the protein production entry is on record as “failed”.

Turning to “MNALARLRGRKVVPQRSDGELDAMAAAGAVVAAALQAVRAAAVAGVSTLSLDQIAESVIRDAGAVPSFLGYHGYPASICASVNDRVVHGIPSAAEVLAPGDLVSIDCGAVLDGWHGDAAITFGVGALDPADEALCQGTRESLEAGIAAMVPGNRLTDVSHAIELGTRAAETRHGRAFGIVEGYGGHGIGRQMHMDPFLPNEGSPGRGPLLAPGSVLAIEPMLTLGTGKTVVLDDQWTVITTDGSRAAHWEHTVAVTDAGPRILTIG”, the protein production result was “failed”.

As for “MSDSTLTGNAPVRRNITRKNVIIGLLLLLFVLIALWCHGRPGSELGLLEFTPLVALAILSLIGVDIVLAVISSIIIAMIMTSTGLPEMGTMLAKSTGSFIATVGLIIMLGAGVGEVATRTGAAVELVKFVVHRIGLSSQTRVKFGIVASSILICGSLGTMAGGNAIIVAVIIPVAAAVRLTPPTVAALMMTAGSVGLFTGPFTPSTVTILSLGGLSYPDYLLYVGLPMSAVTLLAGWVMAGRIQKMTEGKLRYDVDLAEKPQEDLSAAQQRRRKLSALAFAATIIVMAIVGVVIKAGFSFAIIVMLLVALMTGLVGGLRPTQILQALYHGCGRLVWMFILYWLYNPILELMDGLHAYQGLLEYTQPLLEGISPAWLCFSIFAFNIIGHVPGAAVAQMTFTHKIFGPMLMAAGVPPQGTTAVLLASSQVDWFGPFPSSDMFGQMGLAQSTHLKYMLYNGWAIVVANIILFALLFQILV”, the protein production entry was “failed”.

“MSKRWLYSLQLIFFITLVFVLVTGCYSHPNQNIQSANSKPVTSECRIIKHPLGETCIPLHPQRIIAMDEDILEILVALDLKPIAVAINFDEWSSREKQLWQKAEGIDSIVIGNHGILNLEKMLLLKPDLILGLAESTDRKSYELFSQIAPTVTVDYAQTAWRDVLLRVGNIIGKTEQAQKLIAEFQQRIEKLRVIVKNKLGKTKISVVRVYNYFHKTIEFRSNFSFPGSLLVELGLSFPEKQNQIPTSPGFPFVFASLERLDLLDADVMFVTLDAGGEENFKKFQASPLWQKLKAVKNNCVYTVDSGYWIFGNIMSANAILDDLDKYLLQQCR”: the protein production entry is reported as “failed”.

“MTDTSTADVDLVGEEMALNVARTALFAALMGAFAYVSFPYPLSPAPVTLQVLGVFLAGLLLGPLWGGAAMVVYLLAGVLGAPVFSAGEAGIGVILGPQGGYLLSYPFAAAIVGGIVHRGTDIKPLETVSAALMIAAMILSTVVIYAFGIPFMWWNLEMTLLNAVIAGGVVFIPAEAAKMAAAIGIVRSDAIRAE”: the protein production result is given as “failed”.

For “ATITHQEKLLTVDTTAHPFLKALGGHEGTDIFPLFMDPYNGLMVMRASFAPGLTLPLHFHTGTVHMYTISGCWYYTEYPGQKQTAGCYLYEPGGSIHQFNTPRDNEGQTEVIFMLSGCNVNFTQDGTYLGLSDAGVIKNWVDRAIREQDNGLRYIAAAVPTYAA”, the protein production entry was “not failed”.

For the sequence “MKDGEAATGQAASRPKRADARRNEKNLLDAAAAVFVRSGVEAPVRDIAAEAGVGTATIYRHFPTRADLIIGVYRHQVEACAEAGPALLASSPTPYAALAGWIDLFVDFLVTKHGLAAVLQSDSAGFETLHAYFLDRLVPVCTDLLAAATDSGEIDTDVPPLALMRGVGNLCIGAETPNPSYDARQLVRILIAGLRAAD”, the protein production result is given as “not failed”.

As for “MAHLLEKTRKITSILKRSEEQLQDELPYNAITRQLADIIHCNACIINSKGRLLGYFMRYKTNTDRVEQFFQTKIFPDDYVQGANMIYETEANLPVEHDMSIFPIESRDDFPDGLTTIAPIHVSGIRLGSLIIWRNDKKFEDEDLVLVEIASTVVGIQLLNFQREEDEKNIRRRTAVTMAVNTLSYSELRAVSAILGELNGNEGKLTASVIADRIGITRSVIVNALRKLESAGIIESRSLGMKGTYLKVLISDIFEEVKKRDY”, the protein production entry is “failed”.

For “MDAKEDVRPTGRGGRGVTAKSHVIVTSNMSVRQFLDVKYTTMNLNLFLSLDPIVDDNQNTLIKKDCSGRVDKDKGIVGDAQVFYTNGFKMSAMVTKHTNRSYLNNPTSIRRKLFDDAGVKGSNGVVRFHSVETSNVVTISVVNDFYNNEMGDDGVTNVTGIIRLARSTNGDSN”, the protein production result is “failed”.
